Measured values from the nanobody polyreactivity screen of Harvey et al. (2022).

Assay: yeast display, Sf9 membrane polyspecificity reagent, FACS + sequencing; frameworks hold sequencing errors
Summary of the method: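 Synthetic nanobody libraries on Saccharomyces cerevisiae BJ5465 were galactose-induced for 36–48 hours, stained 1 hour at 4 °C with 10% biotinylated, detergent-solubilized Sf9 membrane reagent and enriched on streptavidin microbeads. FACS then separated cells into low and high (top ~1%) gates by anti-HA (expression) and streptavidin (reagent binding) fluorescence. Genes were colony-PCR amplified, MiSeq 2 × 250 sequenced and CDR-length filtered. A clone's polyreactivity label is that of its gate of origin.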

| Sequence | polyreactivity (PSR sort gate) |
| --- | --- |
| QVQLVESGGGLVQAGGSLRLSCDASGSTFYVYAMGWYRQAPGKERELVASINSSTSTNYADSVKGRFTISRDNAKNTVYLQMNSLKPEDTAVYYCAADSRVPEYRSPKNDYWGQGTQVTVSS | low polyreactivity |
| QVQLVESGGGLVQAGGSLRLSCDASGSTLSENVMGWYRQAPGKERELVATISYSGDSTYYADSVKGRFTISRDNAKNTVYLQMNSLKPEDTAVYYCAAGVGWDFAYWGQGTQVTVSS | low polyreactivity |
| QVQLVESGGGLVQAGGSLRLSCDAYGSIFRLYAMGWFRQAPGKEREFVAAIDKRGGRTHYADSVKGRFTISRDNAKNTVYLQITSLKPEDTAVYYCAAKAYVVTNGHGKLDYWGQGPQVTVSS | high polyreactivity |
| QVQLVESGGGLVQAGGSLRLSCDDSGRIFGGYGMGWYTQAPGKEGELVAAISARGGSTYYADSVKGRFTISRDNAKNTVYLQMNSLKPEDTEFYYCAAVEASSRGYYDYDYWGQGTQVTVSS | low polyreactivity |
| QVQLVESGGGLVQAGGSLRLSCGASGFISTYYAMGWYRQAPGKERELVAAISWNGGSTYYADSVKGRFTISRDNAKNTVYLQMNSLKPEDTAVYYCAAYLGKWRHFYSSDYDYWGQGTQVTVSS | low polyreactivity |
| QVQLVESGGGLVQAGGSLRLSCGASGRFFDDYAVGWYRQAPGKEREFVAAISRSGASTYYADSVKGRFTISRDNAKNTVYLQMNSLKPEDTAVYYCAARAGANYRMDYWGQGTQVTVSS | high polyreactivity |
| QVQLVESGGGLVQAGGSLRLSCGASGRIFRGYTMGWYRQAPGKERELVAAINRSGGNTYYADSVKGRFTISRDNAKNTVYLQLNSLKPEDTAVYYCAAGARGYGWRGDYWGQGTQVTVSS | low polyreactivity |
| QVQLVESGGGLVQAGGSLRLSCGASGRIFYSNAMGWYRQAPGTERELVAAITGSGGRTHYADSVKGRFTISRDNAKNTVYLQMNSLKPEDTAVYYCAKDGYFPEFDYWGQGTQVTVSS | high polyreactivity |
| QVQLVESGGGLVQAGGSLRLSCGASGSIFVNKAMGWYRPAPGKERELVAAISSRSSRTFYADSVKGRFTISRDHAKNTVYLKMNILKPEDTEVYSCAVKKRAPDGDYWGQGTQVTVSS | high polyreactivity |
| QVQLVESGGGLVQAGGSLRLSCGASGSTFVAYDMGWYRQGPGKERELVAAISWSDATTYYADSVKGRFTISRDNAKNTVYLLMNSLNPEDTAVYYCAATRDTNNMDYWGQGTQVTVSS | low polyreactivity |
| QVQLVESGGGLVQAGGSLRLSCGASGYIFGYYAMGWYRQAPRKERDLVAAISSSGGSTYYADSVKGRFTISRDHAKNTVYLQMNSLKPEDTAVYYCAAYRWGTHDRLDYWGQGTQVTVSS | high polyreactivity |
| QVQLVESGGGLVQAGGSLRLSCPAPGRIFDRNAMGRYRQAPGKERELVAAISGSGGRTYYADSVKGRFTISRDNAKNTVYLQMNSLKPEDTAVYYCAASRKYGYGDWGQGTQVTVSS | high polyreactivity |
| QVQLVESGGGLVQAGGSLRLSCPASASIFLSNMGWYRQAPGKERELVAAITIGGSTDYADSVKGRFTISRDNAKNTVYLQMNSLKPEDTAVYYCNADNPYSDGADSLGNYWGQGTQVTVSS | low polyreactivity |
| QVQLVESGGGLVQAGGSLRLSCPASGFIFQHYAMGWYRQAPGKERELVAAIDFTDGSTYYADSVKGRFTISRDNAKNTVYLQMNSLKPEDTAVYYCNALDYLYGGIYLDEDYWGQGTQVTVSS | low polyreactivity |
| QVQLVESGGGLVQAGGSLRLSCPASGFIFWYNVMGWSRQAPGKERELVAAISGRGGSTYYADSVKGRFTISRDNAKNTVYLQMNSLKPEDTAVYYCNTFSYRSGAYGYWGQGTQVTVSS | high polyreactivity |
| QVQLVESGGGLVQAGGSLRLSCPASGFTFDVNAMGSYRQAPGKERELVATISSNGGSTYYADSVKGRFTISRDNAKNTVYLQMNSLKPEDTAVYYCNRGEIYFDNDDFDYWGQGTQVTVSS | low polyreactivity |
| QVQLVESGGGLVQAGGSLRLSCPASGFTFYYYAMGWYRQAPGKERELVAAISYSGGSTYYADSVKGRFTISRDNAKNTVYLQMNRLKPEDTAVYYCAADLSTYRRGFDYWGQGTQVTVSS | high polyreactivity |
| QVQLVESGGGLVQAGGSLRLSCPASGGIFGRYAMGWYRQAPGKERELVAAISSSGGRTYYADSVKGRFTISRDNAKNTVYLQMNSLKPEDTAVYYCNADRHSTYGYWGQGTQVTVSS | high polyreactivity |
| QVQLVESGGGLVQAGGSLRLSCPASGIIFSTYAMGWYRQAPGKERELVATITSSGSNTYYADSVKGRFTISRDNAKNTVYLQMNSLKPEDTAVYYCATYSFFWWQYDYWGQGSQVTVSS | high polyreactivity |
| QVQLVESGGGLVQAGGSLRLSCPASGLIYYRYVMGWYRQAPGKERELVAAISGNGASTYYADSVKGRFTISRDNAKNTVFLQMNSLKPVDTAVYYCNADVYVSSKTHSSYPQWWGYDYWGQGTQVTVSS | low polyreactivity |
| QVQLVESGGGLVQAGGSLRLSCPASGRIFGVYAMGWYRQAPGKESELVAAIRYRGGSTYYADSVKGRFTISRDNAKNSVYLQMNSLIPEDTAVYYCAAEVWGVGYYAPYGYWGQGTQVTVSS | high polyreactivity |
| QVQLVESGGGLVQAGGSLRLSCPASGRIFGYNSMGWYRQAPGKEREMVATMSSGGGSNYADSVKGRFTISRDNAKNTVYLQMKSLKPEDTAVFYCAADLFLDGSSLYAPNWWPDGWNTYRVLGGYWGQGTQVTVSS | low polyreactivity |

| Sequence | polyreactivity (PSR sort gate) |
| --- | --- |
| QVQLVESGGGLVQAGGSLRLSCPASGRIFRYYPMGWYRQAPGKEREFVAGITWSGGRTYYADSVKGRFTISRDNAKNTVFVQMNSLKPEDTAVYYCNADAGTRVGWWDDYDYWGQGTQVTVSS | low polyreactivity |
| QVQLVESGGGLVQAGGSLRLSCPASGRIFYRYAMGWYRQEPGKERELVADITWRGGRTYYADSVKGRFTISRDNAKNTVYLQMNSLKPEDTAVYYCAATGGFSWSRDYWGQGTQVTVSS | low polyreactivity |
| QVQLVESGGGLVQAGGSLRLSCPASGSIIIRNAMGWYRQAPGKERELVAAISIGDGSTYADSVKGRFTISRDNAKNTVYLQMNSLKPEDTAVYYCAADRYGFYLESYYWGQGTQVTVSS | low polyreactivity |
| QVQLVESGGGLVQAGGSLRLSCPASGSIIYYAMGWSRQPPGKEREFVAAITKSGGSTYYADSVKGRFTFSRDNAKNTVYLQMNSLKPEDTAVYYCSARGTWAGFYYWGQGTQVTVSS | high polyreactivity |
| QVQLVESGGGLVQAGGSLRLSCPASGSIYGLYSMGWYRQAPGKERELVAVITYSVGTTYYADSVKGRFTISRDNAKNTVYLQMNSLKPEDTAVYYCAADLYWYYPWSAYYGEYDYWGQGTQVTVSS | low polyreactivity |
| QVQLVESGGGLVQAGGSLRLSCPASGSNLYPYAMGSSTQPPATEREMVATISYSVVSTYYAESVKGRFTISRDNAKNTVYLQMNSLKPEDTAVYYCADKSRSSKYVYWGQGTQVSVSS | high polyreactivity |
| QVQLVESGGGLVQAGGSLRLSCPASGSTFAIYGMGWYRQAPGKERELVAGITRGGSTNYADSVKGRFTISRDNAKNTVYLQMNILKPEDTAVYYCNSPLGVRRFKSKGRSHYEYWGQGTQVSVSS | high polyreactivity |
| QVQLVESGGGLVQAGGSLRLSCPASGSTFGPYAMGWYRQAPGKERELVATISGSGSSTYYADSVKGRFTISRDNAKNTVDLQMNSLKPEDTAFYYCATDLYFDLRYDYWGQGTQVTVSS | low polyreactivity |
| QVQLVESGGGLVQAGGSLRLSCPASGSTFYEYAMGWYRQEPGKERELVAAITSGGSTYYADSVKGRFTISRDNAKYTVYLQLNSQKPEDTAVYYCAADPRIRRGDRSTHGYDYWGQGTQVTVSS | low polyreactivity |
| QVQLVESGGGLVQAGGSLRLSCPASGTLTVNTMGWYRQAPGKERELVAAISTGDTTTYADSVKGRFTISRDNAKNTVYVQMNSLKPEDTAVYYCNVDIGVYAYESDYWGQGSQVTVSS | low polyreactivity |
| QVQLVESGGGLVQAGGSLRLSCPDSAFTFSLYGMGWYRQAPGKEREMVAAIRSGGSTNYADSVKGRFTISRDNAKNTVYLQMNSVKPEDTAVYVCATDIHSVHNNRDKHDYDYWGQGTQVTVSS | low polyreactivity |
| QVQLVESGGGLVQAGGSLRLSCSACGGIFDWYAMGWYRQAPGKERELVAAIDFSGDSTYYADSVKGRFTISRDNAKNTVYLQMNSLKPEDTAVYYCAAETNTWYLFDYWGQGTQVTVSS | high polyreactivity |
| QVQLVESGGGLVQAGGSLRLSCSASGFIFFRYSMGWYIQAPGKERELVAAINSSGDSTYADSVKGRFTISRDNAKNTFYLQMNSLKPEDTAVYYCATGGRTEIWYPTLDYWGQGTQVTVSS | low polyreactivity |
| QVQLVESGGGLVQAGGSLRLSCSASGFIFQGYAMGWDRQAPGKERELVATITTSSRTYYADSVKGRFTISRDNAKNTVYLQMYSLKPEDTAVYYCATRGSYRSQRWYGYWGQGTQVTVSS | high polyreactivity |
| QVQLVESGGGLVQAGGSLRLSCSASGFIFYKNAMGWYRQAPGKERELVAAISGGGGSTYYADSVKGRFTISRDNAKNTVYLQMNSLKPDDTAVYYCATYSFRRTGWRYDYWGQGSQVTVSS | high polyreactivity |
| QVQLVESGGGLVQAGGSLRLSCSASGFNFRRYAMGLYRQAPGKERELVAVITSGGSTYYADSVKGRFTISRDNAKNTVYLQMNSLKTEDTAVYYCAARYYWYSQEYVLSSWWGDYCGQGTQVTVSS | high polyreactivity |
| QVQLVESGGGLVQAGGSLRLSCSASGIIFYFYAMGWYRQAPGKERELVAAISDDGVSTDYADSVKGRFTISRDNAKNTVYLQMNSLKPEDTAVFYCNARYSGYLRLDYWGQGTQVTVSS | low polyreactivity |
| QVQLVESGGGLVQAGGSLRLSCSASGITFKLNSMGWYRQAPGKERELVAAITSTGGSTYYADSVKGRFTISRDNAKNTVYLQMNSLKPEDTAVYYCATDILIDGFYSDYWGQGTQVTVSS | high polyreactivity |
| QVQLVESGGGLVQAGGSLRLSCSASGITFLHYAMGWYIQAPGKERELVARITYSGSSTYYADSVKGRFTISRDNAKNTVYLQMNSLKPEDTAVYYCNASASWGRWSRTGTPRYYYWGQGTQVTVSS | high polyreactivity |
| QVQLVESGGGLVQAGGSLRLSCSASGLTFYSYTKGWYRQAPGKERELVAAISYSGGNTYYADSVKGRFTISRDNAKNTVYLQMNSLKQEDTAVYYCNAYFRWYWLIEYDYWGQGTQVTVSS | high polyreactivity |
| QVQLVESGGGLVQAGGSLRLSCSASGNIIRKYAMGWYRQAPGKEREFVAAISSSGGRTYYADSVKGRFTISRDNAKNTVYLQMNSLKPEDTAVYYCAKDPYGRLQPRPRFGYWGQGTQVTVSS | high polyreactivity |
